# B1: tuberous sclerosis complex 1 (TSC1), human, subunit of the purified TSC complex (natural protein, UniProt Q92574 1-1164, looked up)
# chain: MAQQANVGELLAMLDSPMLGVRDDVTAVFKENLNSDRGPMLVNTLVDYYLETSSQPALHILTTLQEPHDKHLLDRINEYVGKAATRLSILSLLGHVIRLQPSWKHKLSQAPLLPSLLKCLKMDTDVVVLTTGVLVLITMLPMIPQSGKQHLLDFFDIFGRLSSWCLKKPGHVAEVYLVHLHASVYALFHRLYGMYPCNFVSFLRSHYSMKENLETFEEVVKPMMEHVRIHPELVTGSKDHELDPRRWKRLETHDVVIECAKISLDPTEASYEDGYSVSHQISARFPHRSADVTTSPYADTQNSYGCATSTPYSTSRLMLLNMPGQLPQTLSSPSTRLITEPPQATLWSPSMVCGMTTPPTSPGNVPPDLSHPYSKVFGTTAGGKGTPLGTPATSPPPAPLCHSDDYVHISLPQATVTPPRKEERMDSARPCLHRQHHLLNDRGSEEPPGSKGSVTLSDLPGFLGDLASEEDSIEKDKEEAAISRELSEITTAEAEPVVPRGGFDSPFYRDSLPGSQRKTHSAASSSQGASVNPEPLHSSLDKLGPDTPKQAFTPIDLPCGSADESPAGDRECQTSLETSIFTPSPCKIPPPTRVGFGSGQPPPYDHLFEVALPKTAHHFVIRKTEELLKKAKGNTEEDGVPSTSPMEVLDRLIQQGADAHSKELNKLPLPSKSVDWTHFGGSPPSDEIRTLRDQLLLLHNQLLYERFKRQQHALRNRRLLRKVIKAAALEEHNAAMKDQLKLQEKDIQMWKVSLQKEQARYNQLQEQRDTMVTKLHSQIRQLQHDREEFYNQSQELQTKLEDCRNMIAELRIELKKANNKVCHTELLLSQVSQKLSNSESVQQQMEFLNRQLLVLGEVNELYLEQLQNKHSDTTKEVEMMKAAYRKELEKNRSHVLQQTQRLDTSQKRILELESHLAKKDHLLLEQKKYLEDVKLQARGQLQAAESRYEAQKRITQVFELEILDLYGRLEKDGLLKKLEEEKAEAAEAAEERLDCCNDGCSDSMVGHNEEASGHNGETKTPRPSSARGSSGSRGGGGSSSSSSELSTPEKPPHQRAGPFSSRWETTMGEASASIPTTVGSLPSSKSFLGMKARELFRNKSESQCDEDGMTSSLSESLKTELGKDLGVEAKIPLNLDGPHPSPPTPDSVGQLHIMDYNETHHEHS
# notes: TSC1 (hamartin), human; ORF sub-cloned into a modified pCAG vector; Two copies (TSC1a, TSC1b) stand in the TSC complex (2:2:1); The sample for cryo-EM was cross-linked with glutaraldehyde (Grafix); also called TSC1a; TSC1b
# B2: tuberous sclerosis complex 2 (TSC2), human, subunit of the purified TSC complex (natural protein)
# chain: not shown
# notes: TSC2 (tuberin), human; ORF sub-cloned into a modified pCAG vector; residues 127-936, 1015-1082, 1182-1245, 1494-1732 traced; Two copies (TSC2a, TSC2b) stand in the TSC complex (2:2:1); The sample for cryo-EM was cross-linked with glutaraldehyde (Grafix); also called TSC2a; TSC2b
# B3: Tre2-Bub2-Cdc16-1 domain family member 7 (TBC1D7), human, subunit of the purified TSC complex (natural protein, UniProt Q9P0N9 1-293, looked up)
# chain: MTEDSQRNFRSVYYEKVGFRGVEEKKSLEILLKDDRLDTEKLCTFSQRFPLPSMYRALVWKVLLGILPPHHESHAKVMMYRKEQYLDVLHALKVVRFVSDATPQAEVYLRMYQLESGKLPRSPSFPLEPDDEVFLAIAKAMEEMVEDSVDCYWITRRFVNQLNTKYRDSLPQLPKAFEQYLNLEDGRLLTHLRMCSAAPKLPYDLWFKRCFAGCLPESSLQRVWDKVVSGSCKILVFVAVEILLTFKIKVMALNSAEKITKFLENIPQDSSDAIVSKAIDLWHKHCGTPVHSS
# notes: TBC1D7, human; ORF sub-cloned into a modified pCAG vector; residues 21-287 traced; One copy stands in the TSC complex (2:2:1); The sample for cryo-EM was cross-linked with glutaraldehyde (Grafix)
# Columns and labels:
# Test in all cases: cryo-EM structure; human TSC complex (TSC1, TSC2, TBC1D7) co-expressed in Expi293F, purified, cross-linked by Grafix (glutaraldehyde); single particle reconstruction, 4.4 Å overall, core 3.6 Å, wings 3.9 and 4.1 Å
# [1] = target: B2; conditions: both partners purified
# [2] = target: the molecule itself
# [3] = target: B1; conditions: both partners purified
binder,measurement,setting,value
B1,binding result,[1],binds
B2,stoichiometry N,[2],2
B3,binding result,[3],binds

# Source: paper PMC7804450, “Structural insights into TSC complex assembly and GAP activity on Rheb” (Nature Communications, 2021)
